These results are taken from US20130052176, “APTAMER FOR NGF AND USE THEREOF” (SHIONOGI & CO., LTD, published 2013).

For series [1], the target named is T1, NGF (nerve growth factor) (human, UniProt P01138 P01138:122-241). The experiment in a line: cell_activity; neurite outgrowth, NGF 1.1 nM; SPR binding; TF-1 IC50 11.1 nM. Conditions: tags: amine-coupled to CM5 chip in SPR; soluble in cell assays; chain copies: 2. (In general: SPR reads the build-up and loss of mass on a sensor chip optically.)
The target of series [2] is T1, NGF (nerve growth factor). The experiment in a line: cell_activity; neurite outgrowth, NGF 0.38 nM; SPR binding; TF-1 IC50 1.0 nM. Conditions: tags: amine-coupled to CM5 chip in SPR; soluble in cell assays; chain copies: 2. As to the method:
(§1) The neurite outgrowth inhibitory activity of the aptamer obtained in Example 1 was evaluated by using Neuroscreen-1 cell, which is a subclone of PC-12 cells.
(§2) The cells (2500 cells per well) were cultured for one day in an RPMI-1640 medium containing 2.5% horse serum and 1.25% fetal bovine serum in a 96 well flat-bottom plate coated with collagen type IV. […] Two days later, the cytoplasm and nuclei were stained using Cellomics Neurite Outgrowth Kit (manufactured by Thermo Scientific), and neurite length per cell was measured by Cellomics ArrayScan VTI (manufactured by Thermo Scientific). With the neurite length per cell obtained by the addition of NGF alone as inhibitory activity 0%, and that of the cell obtained by NGF free culture for 2 days as inhibitory activity 100%, the inhibitory activity of the aptamer was calculated from the neurite length per cell obtained by culturing with the addition of NGF and the aptamer in mixture. When the inhibitory activity was 0% or below, ‘0%’ is indicated.

Series [3] deals with T1, NGF (nerve growth factor). Description: cell_activity; neurite outgrowth, NGF 0.38 nM; SPR binding; TF-1 IC50 0.154 nM. The note with it: tags: amine-coupled to CM5 chip in SPR; soluble in cell assays; chain copies: 2. As to the method: as §1, §2
Series [4] deals with T1, NGF (nerve growth factor). Description: cell_activity; neurite outgrowth, NGF 1.1 nM; SPR binding; blocks NGF-TrkA; TF-1 IC50 20.4 nM. The note with it: tags: amine-coupled to CM5 chip in SPR; soluble in cell assays; chain copies: 2. As to the method: as §1, §2
Series [5] addresses T1, NGF (nerve growth factor). The experiment in a line: cell_activity; neurite outgrowth, NGF 1.1 nM; SPR binding; TF-1 IC50 1.0 nM. Conditions: tags: amine-coupled to CM5 chip in SPR; soluble in cell assays; chain copies: 2.
Series [6] deals with T1, NGF (nerve growth factor). The experiment in a line: cell_activity; neurite outgrowth, NGF 0.38 nM; SPR binding; TF-1 IC50 0.108 nM. Conditions: tags: amine-coupled to CM5 chip in SPR; soluble in cell assays; chain copies: 2. How it is done:
as §1, §2

The target of series [7] is T1, NGF (nerve growth factor). The experiment in a line: cell_activity; neurite outgrowth, NGF 0.38 nM; TF-1 IC50 0.218 nM. The note with it: tags: human NGF; chain copies: 2. How it is done: as §1, §2
The target of series [8] is T1, NGF (nerve growth factor). Description: cell_activity; neurite outgrowth, NGF 0.38 nM; TF-1 IC50 0.044 nM. The note with it: tags: human NGF; chain copies: 2.
Series [9] deals with T1, NGF (nerve growth factor). Description: cell_activity; neurite outgrowth, NGF 0.38 nM; SPR binding; TF-1 IC50 0.120 nM. The note with it: tags: amine-coupled to CM5 chip in SPR; soluble in cell assays; chain copies: 2. As to the method:
as §1, §2

Series [10] deals with T1, NGF (nerve growth factor). Description: cell_activity; neurite outgrowth, NGF 0.38 nM; SPR binding; TF-1 IC50 0.119 nM. The note with it: tags: amine-coupled to CM5 chip in SPR; soluble in cell assays; chain copies: 2. As to the method: as §1, §2
Series [11] deals with T1, NGF (nerve growth factor). Description: cell_activity; neurite outgrowth, NGF 0.38 nM; TF-1 IC50 0.176 nM. Conditions: tags: human NGF; chain copies: 2. How it is done:
as §1, §2

The target of series [12] is T1, NGF (nerve growth factor). Description: cell_activity; neurite outgrowth, NGF 0.38 nM; SPR binding; TF-1 IC50 0.101 nM. The note with it: tags: amine-coupled to CM5 chip in SPR; soluble in cell assays; chain copies: 2. As to the method: as §1, §2
The target of series [13] is T1, NGF (nerve growth factor). The experiment in a line: cell_activity; neurite outgrowth, NGF 0.38 nM; TF-1 IC50 0.239 nM. The note with it: tags: human NGF; chain copies: 2. As to the method:
as §1, §2

Series [14] has as its target T1, NGF (nerve growth factor). Description: cell_activity; neurite outgrowth, NGF 0.38 nM; TF-1 IC50 0.193 nM. The note with it: tags: human NGF; chain copies: 2. How it is done:
as §1, §2

A value given as a limit tells only on which side of the number the result lay.

T1 sequence (P01138 122-241, one chain of several): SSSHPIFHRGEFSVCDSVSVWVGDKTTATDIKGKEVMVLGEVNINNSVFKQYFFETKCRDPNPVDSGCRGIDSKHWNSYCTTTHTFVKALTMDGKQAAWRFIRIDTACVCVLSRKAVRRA

B1: aptamer ID 10 (ssRNA)
RNA: GGGAGAACUUCGCCAGAAGUUUGAAAGAAACCCAAAUUAAAAAGUAUGUGCGCAUACA
modifications: 2'-F at all pyrimidines
What is called IC50 is the point on the concentration scale where inhibition reaches its midpoint. With B1, in [1], the IC50 was below 3 nM.

Turning to GGGAGACUCGCCAGAGUUGAAAGAAACCCAAAUAGUGUGCGCAC (ssRNA, 2'-F at all pyrimidines) [aptamer ID 29], the IC50 in series [2] is below 0.3 nM. In turn, GGGAGACUCGCCAGAGUUGAAAGAAACCCAAAUAGUGUGCGCAC (ssRNA, 2'-F pyrimidines; 2'-OMe purines except 2'-OH at 3,19,20; 5' idT and 3' idT) [aptamer ID 29(1)] yielded an IC50 in series [3] of 0.058 nM.

B2: aptamer ID 1 (ssRNA)
RNA: GGGAGAACUUCGACCAGAAGUUUGAAAGAAACCCAAAUUAAAGUGAACAGUAUGUGCGCAUACA
modifications: 2'-F at all pyrimidines
For B2, in series [4], the IC50 came out at 2.1 nM.

B3: aptamer ID 21 (ssRNA)
RNA: GGGAGAACUUCGCCAGAAGUUUGAAAGAAACCCAAAUAAAGAGUGCGCUCA
modifications: 2'-F at all pyrimidines
Take B3: in series [5], the concentration for half-maximal inhibition (IC50) turned out to be 1.1 nM.

B4: aptamer ID 26(51) (ssRNA)
RNA: GGGAGACUCGCCAGAGUUGAAAGAAACCCAAAUAAGUGUGCGCAC
modifications: 2'-F pyrimidines except 2'-OMe at 7,8,9,11,12,17,18,33,37,45; 2'-OMe purines except 2'-OH at 3,19,20; 5' idT and 3' idT
For B4, the IC50 in [6] was 0.191 nM.

B5: aptamer ID 26(39) (ssRNA)
RNA: GGGAGACUCGCCAGAGUUGAAAGAAACCCAAAUAAGUGUGCGCAC
modifications: as 26(19) (5' and 3' idT; 2'-F pyrimidines; 2'-OMe purines except ribo g3,g19,a20,a26) but c7 is 2'-OMe; PS between a25 and a26
B5: the 50% inhibitory concentration (IC50) in series [7] is 0.168 nM.

B6: aptamer ID 26(10) (ssRNA)
RNA: GGGAGACUCGCCAGAGUUGAAAGAAACCCAAAUAAGUGUGCGCAC
modifications: 5' and 3' idT; 2'-F all pyrimidines; 2'-OMe all purines except ribo g3,g5,g19,a20,a21,a22,a24
Turning to B6, in series [8], the IC50 worked out at 0.047 nM. In other words, the picomolar range.

B7: aptamer ID 26(62) (ssRNA)
RNA: GGGAGACUCGCCAGAGUUGAAAGAAACCCAAAUAAGUGUGCGCAC
modifications: 2'-F pyrimidines except 2'-OMe at 7,8,9,11,12,17,18,33,37,45; 2'-OMe purines except 2'-OH at 3,19,20 and LNA at a26; 5' idT and 3' idT
With B7, in series [9], the half-inhibitory concentration (IC50) was 0.228 nM. That is a sub-nanomolar value.

B8: aptamer ID 26(63) (mixed)
RNA: GGGAGACUCGCCAGAGUUGAAAGAAACCCAAAUAAGUGUGCGCAC
modifications: 2'-F pyrimidines except 2'-OMe at 7,8,9,11,12,17,18,33,37,39,45 and dC at 27,29; 2'-OMe purines except 2'-OH at 3,19,20,26; 5' idT and 3' idT
On to B8, for which the IC50 in series [10] was 0.139 nM.

B9: aptamer ID 26(33) (ssRNA)
RNA: GGGAGACUCGCCAGAGUUGAAAGAAACCCAAAUAAGUGUGCGCAC
modifications: as 26(19) (5' and 3' idT; 2'-F pyrimidines; 2'-OMe purines except ribo g3,g19,a20,a26) but c12 is 2'-OMe
In turn, B9 returned an IC50 in series [11] of 0.294 nM.

B10: aptamer ID 26(59) (ssRNA)
RNA: GGGAGACUCGCCAGAGUUGAAAGAAACCCAAAUAAGUGUGCGCAC
modifications: 2'-F pyrimidines except 2'-OMe at 7,8,9,11,12,17,18,33,37,45; 2'-OMe purines except 2'-F at g3 and 2'-OH at 19,20,26; 5' idT and 3' idT
On to B10, for which the half-maximal inhibitory concentration (IC50) in [12] was 0.17 nM.

B11: aptamer ID 26(34) (ssRNA)
RNA: GGGAGACUCGCCAGAGUUGAAAGAAACCCAAAUAAGUGUGCGCAC
modifications: as 26(19) (5' and 3' idT; 2'-F pyrimidines; 2'-OMe purines except ribo g3,g19,a20,a26) but u33 is 2'-OMe
Regarding B11, the IC50 in series [13] was determined as 0.247 nM.

B12: aptamer ID 26(32) (ssRNA)
RNA: GGGAGACUCGCCAGAGUUGAAAGAAACCCAAAUAAGUGUGCGCAC
modifications: as 26(19) (5' and 3' idT; 2'-F pyrimidines; 2'-OMe purines except ribo g3,g19,a20,a26) but c11 is 2'-OMe
B12 registered a 50% inhibitory concentration (IC50) in [14] of 0.22 nM.
